T1: CEACAM1 (Sino Biological) (human, UniProt P13688 35-428, limits assumed)
T1 construct: may be the same as CEACAM1-HIS; also called hCEACAM1; biotinylated soluble CEACAM1
T1 sequence: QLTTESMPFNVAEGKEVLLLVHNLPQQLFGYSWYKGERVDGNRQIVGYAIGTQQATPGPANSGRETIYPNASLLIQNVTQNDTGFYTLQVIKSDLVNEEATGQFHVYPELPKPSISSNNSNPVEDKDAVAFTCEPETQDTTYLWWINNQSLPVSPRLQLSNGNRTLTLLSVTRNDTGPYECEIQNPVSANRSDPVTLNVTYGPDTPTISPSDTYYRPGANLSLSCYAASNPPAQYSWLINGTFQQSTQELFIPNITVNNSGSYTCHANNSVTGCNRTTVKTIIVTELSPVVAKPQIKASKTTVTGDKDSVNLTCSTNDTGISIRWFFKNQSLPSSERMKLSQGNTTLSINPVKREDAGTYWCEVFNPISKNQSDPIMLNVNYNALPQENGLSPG


molecular target: T1, CEACAM1 (Sino Biological); experiment: SPR single-cycle
Method: To assess the binding of the humanized affinity matured IgGs, single cycle kinetics analysis was performed on crude supernatants using a Biacore T200 running Biacore T200 Control Software V2.0.1 and Biacore T200 Evaluation Software V3.0 (Uppsala, Sweden). Antibodies were diluted in HBS-P+ (GE Healthcare) to a final concentration of […]. At the start of each cycle, antibodies were loaded onto Fc2, Fc3 and Fc4 of the Protein A chip (GE Healthcare). IgGs were captured at a flow rate of 10 μl/min to give an immobilization level (RL) of ˜100 RU (a level calculated to obtain an Rmax of ˜50-150 RU once the analyte is bound). The surface was then allowed to stabilize. Single cycle kinetics data was obtained with CEACAM1 as the analyte at a flow rate of […] to minimize any potential mass transfer effects. Multiple repeats with the parent (VH2 N56Q/Vκ4 S27(f)A) antibody were performed to check the stability of the surface and analyte over the kinetic cycles. The signal from the reference channel Fc1 (no antibody) was subtracted from that of Fc2, Fc3 and Fc4 to correct for differences in non-specific binding to the reference surface. A three point, two-fold dilution range from 25 nM to 100 nM CEACAM 1 without regeneration between each concentration was used. The signal from each antibody blank run (no CEACAM1) was subtracted to correct for differences in surface stability. The association phase for the three injections of increasing concentrations of CEACAM1 was monitored for 200 seconds each time and a single dissociation phase was measured for 300 seconds following the last injection of CEACAM1. Regeneration of the Protein A surface was conducted using two injections of 10 mM glycine-HCL pH 1.5 followed by a stabilization period of 240 seconds.

| Kd | fold better than Parent (KD) | Binder |
| --- | --- | --- |
| 61 nM | 2.62 fold | Parent VH/L16 (antibody, IgG4, V domains shown, IgG4 S241P, kappa) VH: EVQLLESGGGLVQPGGSLRLSCAASGFSFSDYYLYWVRQAPGKGLEWVATISVGGGQTSYADSVKGRFTISRDNSKNTLYLQMNSLRAEDTAMYYCTRGLYYGPAWFAYWGQGTLVTVSS VL: DIVMTQSPDSLAVSLGERATINCKSSQSLLNSANQKNYLAWYQQKPGQPPKLLIYFASTRESGVPDRFSGSGSGTDFTLTISSLQAEDVAVYYCQSHYPYPFTFGGGTKVEIK |
| 86 nM | 1.85 fold | He3/L2 (antibody, IgG4, V domains shown, IgG4 S241P, kappa) VH: EVQLLESGGGLVQPGGSLRLSCAASGFSFSDYYLYWVRQAPGKGLEWVATISVGGGQTSYADSVKGRFTISRDNSKNTLYLQMNSLRAEDTAMYYCTRALTYGPAWLAYWGQGTLVTVSS VL: DIVMTQSPDSLAVSLGERATINCKSSQSLLNSANQKNYLAWYQQKPGQPPKLLIYFASTRESGVPDRFSGSGSGTDFTLTISSLQAEDVAVYYCQSHYPFPYTFGGGTKVEIK |
| 996 nM | 0.55 fold | He1/L19 (antibody, IgG4, V domains shown, IgG4 S241P, kappa) VH: EVQLLESGGGLVQPGGSLRLSCAASGFSFSDYYLYWVRQAPGKGLEWVATISVGGGQTSYADSVKGRFTISRDNSKNTLYLQMNSLRAEDTAMYYCTRGLYYGPSWFAYWGQGTLVTVSS VL: DIVMTQSPDSLAVSLGERATINCKSSQSLLNSANQKNYLAWYQQKPGQPPKLLIYFASTRESGVPDRFSGSGSGTDFTLTISSLQAEDVAVYYCQSHIYPNFTFGGGTKVEIK |
| 263 nM | 2.1 fold | He1/L3 (antibody, IgG4, V domains shown, IgG4 S241P, kappa) VH: EVQLLESGGGLVQPGGSLRLSCAASGFSFSDYYLYWVRQAPGKGLEWVATISVGGGQTSYADSVKGRFTISRDNSKNTLYLQMNSLRAEDTAMYYCTRGLYYGPSWFAYWGQGTLVTVSS VL: DIVMTQSPDSLAVSLGERATINCKSSQSLLNSANQKNYLAWYQQKPGQPPKLLIYFASTRESGVPDRFSGSGSGTDFTLTISSLQAEDVAVYYCQSHFPFPFTFGGGTKVEIK |
| 544 nM | 1.01 fold | He1/Parent VL (antibody, IgG4, V domains shown, IgG4 S241P, kappa) VH: EVQLLESGGGLVQPGGSLRLSCAASGFSFSDYYLYWVRQAPGKGLEWVATISVGGGQTSYADSVKGRFTISRDNSKNTLYLQMNSLRAEDTAMYYCTRGLYYGPSWFAYWGQGTLVTVSS VL: not shown |
| 326 nM | 1.69 fold | He1/L18 (antibody, IgG4, V domains shown, IgG4 S241P, kappa) VH: EVQLLESGGGLVQPGGSLRLSCAASGFSFSDYYLYWVRQAPGKGLEWVATISVGGGQTSYADSVKGRFTISRDNSKNTLYLQMNSLRAEDTAMYYCTRGLYYGPSWFAYWGQGTLVTVSS VL: DIVMTQSPDSLAVSLGERATINCKSSQSLLNSANQKNYLAWYQQKPGQPPKLLIYFASTRESGVPDRFSGSGSGTDFTLTISSLQAEDVAVYYCQSHFPYPFTFGGGTKVEIK |
| 487 nM | 1.13 fold | He1/L2 (antibody, IgG4, V domains shown, IgG4 S241P, kappa) VH: EVQLLESGGGLVQPGGSLRLSCAASGFSFSDYYLYWVRQAPGKGLEWVATISVGGGQTSYADSVKGRFTISRDNSKNTLYLQMNSLRAEDTAMYYCTRGLYYGPSWFAYWGQGTLVTVSS VL: DIVMTQSPDSLAVSLGERATINCKSSQSLLNSANQKNYLAWYQQKPGQPPKLLIYFASTRESGVPDRFSGSGSGTDFTLTISSLQAEDVAVYYCQSHYPFPYTFGGGTKVEIK |
| 301 nM | 1.83 fold | He1/L4#2 (antibody, IgG4, V domains shown, IgG4 S241P, kappa) VH: EVQLLESGGGLVQPGGSLRLSCAASGFSFSDYYLYWVRQAPGKGLEWVATISVGGGQTSYADSVKGRFTISRDNSKNTLYLQMNSLRAEDTAMYYCTRGLYYGPSWFAYWGQGTLVTVSS VL: DIVMTQSPDSLAVSLGERATINCKSSQSLLNSANQKNYLAWYQQKPGQPPKLLIYFASTRESGVPDRFSGSGSGTDFTLTISSLQAEDVAVYYCQSHYPYPYTFGGGTKVEIK |
| 62 nM | 2.57 fold | He3/L1 (antibody, IgG4, V domains shown, IgG4 S241P, kappa) VH: EVQLLESGGGLVQPGGSLRLSCAASGFSFSDYYLYWVRQAPGKGLEWVATISVGGGQTSYADSVKGRFTISRDNSKNTLYLQMNSLRAEDTAMYYCTRALTYGPAWLAYWGQGTLVTVSS VL: DIVMTQSPDSLAVSLGERATINCKSSQSLLNSANQKNYLAWYQQKPGQPPKLLIYFASTRESGVPDRFSGSGSGTDFTLTISSLQAEDVAVYYCQSHYPFYYTFGGGTKVEIK |
| 307 nM | 1.8 fold | He1/L5 (antibody, IgG4, V domains shown, IgG4 S241P, kappa) VH: EVQLLESGGGLVQPGGSLRLSCAASGFSFSDYYLYWVRQAPGKGLEWVATISVGGGQTSYADSVKGRFTISRDNSKNTLYLQMNSLRAEDTAMYYCTRGLYYGPSWFAYWGQGTLVTVSS VL: DIVMTQSPDSLAVSLGERATINCKSSQSLLNSANQKNYLAWYQQKPGQPPKLLIYFASTRESGVPDRFSGSGSGTDFTLTISSLQAEDVAVYYCQSHYPFAFTFGGGTKVEIK |
| 264 nM | 2.09 fold | He1/L20 (antibody, IgG4, V domains shown, IgG4 S241P, kappa) VH: EVQLLESGGGLVQPGGSLRLSCAASGFSFSDYYLYWVRQAPGKGLEWVATISVGGGQTSYADSVKGRFTISRDNSKNTLYLQMNSLRAEDTAMYYCTRGLYYGPSWFAYWGQGTLVTVSS VL: DIVMTQSPDSLAVSLGERATINCKSSQSLLNSANQKNYLAWYQQKPGQPPKLLIYFASTRESGVPDRFSGSGSGTDFTLTISSLQAEDVAVYYCQSHFPYPLTFGGGTKVEIK |
| 568 nM | 0.97 fold | He1/L1 (antibody, IgG4, V domains shown, IgG4 S241P, kappa) VH: EVQLLESGGGLVQPGGSLRLSCAASGFSFSDYYLYWVRQAPGKGLEWVATISVGGGQTSYADSVKGRFTISRDNSKNTLYLQMNSLRAEDTAMYYCTRGLYYGPSWFAYWGQGTLVTVSS VL: DIVMTQSPDSLAVSLGERATINCKSSQSLLNSANQKNYLAWYQQKPGQPPKLLIYFASTRESGVPDRFSGSGSGTDFTLTISSLQAEDVAVYYCQSHYPFYYTFGGGTKVEIK |
| 402 nM | 1.37 fold | He1/L6 (antibody, IgG4, V domains shown, IgG4 S241P, kappa) VH: EVQLLESGGGLVQPGGSLRLSCAASGFSFSDYYLYWVRQAPGKGLEWVATISVGGGQTSYADSVKGRFTISRDNSKNTLYLQMNSLRAEDTAMYYCTRGLYYGPSWFAYWGQGTLVTVSS VL: DIVMTQSPDSLAVSLGERATINCKSSQSLLNSANQKNYLAWYQQKPGQPPKLLIYFASTRESGVPDRFSGSGSGTDFTLTISSLQAEDVAVYYCQSHYPFSFTFGGGTKVEIK |
| 163 nM | 0.98 fold | He3/L3 (antibody, IgG4, V domains shown, IgG4 S241P, kappa) VH: EVQLLESGGGLVQPGGSLRLSCAASGFSFSDYYLYWVRQAPGKGLEWVATISVGGGQTSYADSVKGRFTISRDNSKNTLYLQMNSLRAEDTAMYYCTRALTYGPAWLAYWGQGTLVTVSS VL: DIVMTQSPDSLAVSLGERATINCKSSQSLLNSANQKNYLAWYQQKPGQPPKLLIYFASTRESGVPDRFSGSGSGTDFTLTISSLQAEDVAVYYCQSHFPFPFTFGGGTKVEIK |
| 341 nM | 1.62 fold | He1/L16 (antibody, IgG4, V domains shown, IgG4 S241P, kappa) VH: EVQLLESGGGLVQPGGSLRLSCAASGFSFSDYYLYWVRQAPGKGLEWVATISVGGGQTSYADSVKGRFTISRDNSKNTLYLQMNSLRAEDTAMYYCTRGLYYGPSWFAYWGQGTLVTVSS VL: DIVMTQSPDSLAVSLGERATINCKSSQSLLNSANQKNYLAWYQQKPGQPPKLLIYFASTRESGVPDRFSGSGSGTDFTLTISSLQAEDVAVYYCQSHYPYPFTFGGGTKVEIK |
| 374 nM | 1.47 fold | He1/L17 (antibody, IgG4, V domains shown, IgG4 S241P, kappa) VH: EVQLLESGGGLVQPGGSLRLSCAASGFSFSDYYLYWVRQAPGKGLEWVATISVGGGQTSYADSVKGRFTISRDNSKNTLYLQMNSLRAEDTAMYYCTRGLYYGPSWFAYWGQGTLVTVSS VL: DIVMTQSPDSLAVSLGERATINCKSSQSLLNSANQKNYLAWYQQKPGQPPKLLIYFASTRESGVPDRFSGSGSGTDFTLTISSLQAEDVAVYYCQSHYPYPYTFGGGTKVEIK |
| 429 nM | 1.28 fold | He1/L4 #1 (antibody, IgG4, V domains shown, IgG4 S241P, kappa) VH: EVQLLESGGGLVQPGGSLRLSCAASGFSFSDYYLYWVRQAPGKGLEWVATISVGGGQTSYADSVKGRFTISRDNSKNTLYLQMNSLRAEDTAMYYCTRGLYYGPSWFAYWGQGTLVTVSS VL: DIVMTQSPDSLAVSLGERATINCKSSQSLLNSANQKNYLAWYQQKPGQPPKLLIYFASTRESGVPDRFSGSGSGTDFTLTISSLQAEDVAVYYCQSHFPYYYTFGGGTKVEIK |

— US20250388666A1 (BRIGHAM AND WOMEN S HOSPITAL, published 2025)
